Test results reported in the RNAGym collection of RNA variant scans (doi:10.1093/molbev/msab373).

B1: Azoarcus group I ribozyme (parent)
chain: GUGCCUUGCGCCGGGAAACCACGCAAGGGAUGGUGUCAAAUUCGGCGAAACCUAAGCGCCCGCCCGGGCGUAUGGCAACGCCGAGCCAAGCUUCGGCGCCUGCGCCGAUGAAGGUGUAGAGACUAGACGGCACCCACCUAAGGCAAACGCUAUGGUGAAGGCAUAGUCCAGGGAGUGGCGAAAGUCACACAAACCGG

Variants of: B1
Assay: reverse-splicing fitness (ratio to wild type); higher = more active; in vitro selection; Mg2+ level not given
Outline: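 An in vitro group I ribozyme library with randomized positions was T7-transcribed and gel-purified. In triplicate, 10 pmol RNA in EPPS pH 7.5 was reacted with 50 pmoles of a 30-nt RNA substrate for 1 h at 37 °C across several added MgCl2 levels (1–48 mM), then stopped with EDTA. Products were reverse transcribed from a substrate-complementary primer, PCR-amplified and sequenced (HiSeq 4000). Fitness is a variant's read proportion after selection over that before, normalised to wild type.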

Variant	reverse-splicing fitness
C82G A111G A120G A145U C150G U176C	0.0158
C82G A111G A120G A145U C150G U176A	0.00801
C82G A111G A120G C150A U176G	0.0109
C82G A111G A120G C150A U176A	0.0148
C82G A111G A120G C150A U176C	0.023
C82G A111G A120U A145C C150G C169G U176G	0.00196
C82G A111G A120U A145C C150G C169G U176C	0.00228
C82G A111G A120U A145C C150G C169G U176A	0.00278
C82G A111G A120U A145C C150U C169A	0.00231
C82G A111G A120U A145C C150U C169G	0.00281
C82G A111G A120U A145C C150U C169U	0.00328
C82G A111G A120G A145U C150G C169A U176C	0.0133
C82G A111G A120G A145U C150G C169A U176A	0.0118
C82G A111G A120G A145U C150G C169A U176G	0.00555
C82G A111G A120G A145U U176G	0.00543
C82G A111G A120G A145U U176A	0.0167
C82G A111G A120G A145U U176C	0.0242
C82G A111G A120G C150U C169A U176A	0.0193
C82G A111G A120G C150U C169A U176C	0.0197
C82G A111G A120G C150U C169A U176G	0.00607
C82G A111G A120G A145U C169G U176C	0.0187

Variant	reverse-splicing fitness
C82G A111G A120G A145U C169G U176A	0.0149
C82G A111G A120G A145U C169G U176G	0.0044
C82G A111G A120U	0.0726
C82G A111G A120G C150U C169G U176G	0.00549
C82G A111G A120G C150U C169G U176C	0.0206
C82G A111G A120G C150U C169G U176A	0.0182
C82G A111G A120G U176G	0.00869
C82G A111G A120G U176C	0.0217
C82G A111G A120G U176A	0.0172
C82G A111G A120G C150G C169G U176G	0.0053
C82G A111G A120G C150G C169G U176A	0.00837
C82G A111G A120G C150G C169G U176C	0.00628
C82G A111G A120G A145U C150G C169U	0.00943
C82G A111G A120G A145U C150G C169A	0.01
C82G A111G A120G A145U C150G C169G	0.00827
C82G A111G A120G A145U C150U C169U U176C	0.0182
C82G A111G A120G A145U C150U C169U U176A	0.0186
C82G A111G A120G A145U C150U C169U U176G	0.00452
C82G A111G A120G C150A C169U U176G	0.00912
C82G A111G A120G C150A C169U U176A	0.021
C82G A111G A120G C150A C169U U176C	0.0176

Variant	reverse-splicing fitness
C82G A111G A120G A145U C150A C169U U176A	0.0196
C82G A111G A120G A145U C150A C169U U176C	0.0177
C82G A111G A120G A145U C150A C169U U176G	0.00582
C82G A111G A120G C150U U176C	0.0211
C82G A111G A120G C150U U176G	0.00986
C82G A111G A120G C150U U176A	0.012
C82G A111G A120U A145C C150U C169A U176G	0.00197
C82G A111G A120U A145C C150U C169A U176C	0.00184
C82G A111G A120U A145C C150U C169A U176A	0.00272
C82G A111G A120U A145C C150G C169A	0.00256
C82G A111G A120U A145C C150G C169U	0.00296
C82G A111G A120U A145C C150G C169G	0.0027
C82G A111G A120G C150G U176A	0.0085
C82G A111G A120G C150G U176C	0.0157
C82G A111G A120G C150G U176G	0.00387
C82G A111G A120G C150U C169U U176A	0.0189
C82G A111G A120G C150U C169U U176G	0.00864
C82G A111G A120G C150U C169U U176C	0.0174
C82G A111G A120G A145U C150G	0.00774
C82G A111G A120G A145U C150U	0.0155
C82G A111G A120G A145U C150U U176C	0.0212

Variant	reverse-splicing fitness
C82G A111G A120G A145U C150U U176A	0.0125
C82G A111G A120G A145U C150U U176G	0.00626
C82G A111G A120G A145U C150U C169A	0.0123
C82G A111G A120G A145U C150U C169U	0.0114
C82G A111G A120G A145U C150U C169G	0.0148
C82G A111G A120G C169G U176G	0.00487
C82G A111G A120G C169G U176A	0.0194
C82G A111G A120G C169G U176C	0.0232
C82G A111G A120G C150A	0.0101
C82G A111G A120G C150G	0.00784
C82G A111G A120G C150U	0.0156
C82G A111G A120G C150G C169A U176A	0.0118
C82G A111G A120G C150G C169A U176C	0.0135
C82G A111G A120G C150G C169A U176G	0.00685
C82G A111G A120U A145C C150A C169U U176A	0.00266
C82G A111G A120U A145C C150A C169U U176G	0.0019
C82G A111G A120U A145C C150A C169U U176C	0.00238
C82G A111G A120U A145C	0.0668
C82G A111G A120U A145C C150G C169U U176A	0.00286
C82G A111G A120U A145C C150G C169U U176G	0.00221
C82G A111G A120U A145C C150G C169U U176C	0.00238
